Laboratory results reported in patent US20150011730A1.
pIC50: −log10 of the molar value.

How the values were obtained:
[1] = molecular target: CDK2/cyclin A (as used in the binding assay) (UniProt P24941)
[2] = molecular target: CDK4/cyclin D1 (as used in the binding assay) (UniProt P11802)
Sequence of CDK4/cyclin D1 (as used in the binding assay) (P11802 whole entry, chain 1 of 2): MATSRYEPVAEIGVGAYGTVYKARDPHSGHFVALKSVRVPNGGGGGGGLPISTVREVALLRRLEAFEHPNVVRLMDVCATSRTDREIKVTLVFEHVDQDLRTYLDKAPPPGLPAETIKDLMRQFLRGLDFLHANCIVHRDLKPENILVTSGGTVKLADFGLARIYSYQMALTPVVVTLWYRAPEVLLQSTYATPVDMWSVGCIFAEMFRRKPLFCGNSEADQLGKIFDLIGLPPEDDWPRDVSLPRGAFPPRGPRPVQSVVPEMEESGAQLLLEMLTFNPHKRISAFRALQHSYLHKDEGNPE
Sequence of CDK4/cyclin D1 (as used in the binding assay) (P24385 whole entry, chain 2 of 2, further chain): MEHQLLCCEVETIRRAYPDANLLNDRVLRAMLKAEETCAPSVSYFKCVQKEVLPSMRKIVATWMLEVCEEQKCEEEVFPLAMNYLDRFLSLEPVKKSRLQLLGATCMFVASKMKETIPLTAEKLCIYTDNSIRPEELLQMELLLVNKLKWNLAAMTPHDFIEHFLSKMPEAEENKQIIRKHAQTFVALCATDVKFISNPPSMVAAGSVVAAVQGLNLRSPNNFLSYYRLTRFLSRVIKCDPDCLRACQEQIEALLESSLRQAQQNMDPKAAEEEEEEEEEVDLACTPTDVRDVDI

Row | Substance | pIC50 [1] | pIC50 [2]
1 | R{bLeu}NMeF-NH2 (peptide) | 6.39 | 4.05
2 | R{bLeu}NMeF (peptide) | 6.30 | 4.21
